Laboratory results from patent US7384773B1, “Crystal of HIV protease-cleaved human beta secretase and method for crystallization thereof” (Pfizer Inc, priority 2001, dated 2008).

Target: T1, beta secretase (Homo sapiens, UniProt P56817)
T1 construct: made in house; host or cells: CHO-K1 cells (secreted, glycosylated)
Test: beta secretase enzymatic activity assayed by HPLC analysis of the products
Format: biochemical
Conditions: CHO cell derived human beta secretase cleaved at F39-V40 by HIV-1 protease and purified, compared with non-treated beta secretase
Protocol: Purified HIV-1 protease treated (and non-treated) beta secretase were assayed for activity by HPLC analysis of the products.

B1: HIV-1 protease treated beta secretase: CHO cell expressed recombinant human beta secretase proteolytically cleaved with HIV protease (N-terminus V40), used for crystallization (protein)
chain: VEMVDNLRGKSGQGYYVEMTVGSPPQTLNILVDTGSSNFAVGAAPHPFLHRYYQRQLSSTYRDLRKGVYVPYTQGKWEGELGTDLVSIPHGPNVTVRANIAAITESDKFFINGSNWEGILGLAYAEIARPDDSLEPFFDSLVKQTHVPNLFSLQLCGAGFPLNQSEVLASVGGSMIIGGIDHSLYTGSLWYTPIRREWYYEVIIVRVEINGQDLKMDCKEYNYDKSIVDSGTTNLRLPKKVFEAAVKSIKAASSTEKFPDGFWLGEQLVCWQAGTTPWNIFPVISLYLMGEVTNQSFRITILPQQYLRPVEDVATSQDDCYKFAISQSSTGTVMGAVIMEGFYVVFDRARKRIGFAVSACHVHDEFRTAAVEGPFVTLDMEDCGYNIPQTDESHHHHHH
With B1 the “more enzymatic activity than non-treated (unprocessed) beta secretase” value was 10-20%.
